Test results taken from article PMC10328973.

Tests used:
[1] = molecular target: UKNP5.2.1 E2E1-I53-50A trimer (permuted HCV envelope glycoprotein, genotype 5) (hepatitis C virus, strain UKNP5.2.1 (genotype 5))
[2] = molecular target: UKNP5.2.1 E2E1-I53-50A trimer; assay: ELISA; details: read off a plot
[3] = molecular target: UKNP2.2.1 E2E1-I53-50A trimer; assay: ELISA; details: read off a plot

Substance: AR3C (mature bNAb, IgG) (antibody)
- Supplementary Figure 7b: IC50 of neutralization of UKNP5.2.1 HCVpp (% infectivity, serial dilution of IgG), AR3C IgG [1]: 0.07 µg/mL

Substance: HEPC3 (mature bNAb, IgG) (antibody)
- Supplementary Figure 7b: IC50 of neutralization of UKNP5.2.1 HCVpp (% infectivity, serial dilution of IgG), HEPC3 IgG [1]: 0.14 µg/mL

Substance: gl-AR3A F54L
- other: AUC ([2]; parent: est. 3.4): 1.4
- other: AUC ([3]; parent: est. 0.001): 0.001

Substance: gl-AR3A F54L; G50R
- other: AUC ([2]; parent: est. 3.4): 0.001
- other: AUC ([3]; parent: est. 0.001): 0.001

Substance: gl-AR3A G50R
- other: AUC ([2]; parent: est. 3.4): 0.001
- other: AUC ([3]; parent: est. 0.001): 0.001

Substance: gl-AR3C F54L
- other: AUC ([2]; parent: est. 0.65): 4.8
- other: AUC ([3]; parent: est. 2.1): 18

Substance: gl-AR3C F54L; G50R
- other: AUC ([2]; parent: est. 0.65): 0.001
- other: AUC ([3]; parent: est. 2.1): 0.001

Substance: gl-AR3C G50R
- other: AUC ([2]; parent: est. 0.65): 0.001
- other: AUC ([3]; parent: est. 2.1): 0.001

Substance: gl-HEPC74 F54L
- other: AUC ([2]; parent: est. 0.010): 0.03
- other: AUC ([3]; parent: est. 1.0): 1.9

Substance: gl-HEPC74 F54L; G50R
- other: AUC ([2]; parent: est. 0.010): 0.11
- other: AUC ([3]; parent: est. 1.0): 12

Substance: gl-HEPC74 G50R
- other: AUC ([2]; parent: est. 0.010): 0.04
- other: AUC ([3]; parent: est. 1.0): 7.4
